B1: hemextin A (protein)
chain: LKCKNKLVPFLSKTCPEGKNLCYKMTMLKMPKIPIKRGCTDACPKSSLLVKVVCCNKDKCN
B2: hemextin AB complex: synergistic 1:1 tetrameric complex of hemextin A and hemextin B, reconstituted from equimolar proteins (protein)
chain 1: LKCKNKLVPFLSKTCPEGKNLCYKMTMLKMPKIPIKRGCTDACPKSSLLVKVVCCNKDKCN
chain 2: LKCKNKVVPFLKCKNKVVPFLCYKMTLKKVPKIPIKRGCTDACPKSSLLVNVMCCKTDKCN
B3: hemextin B (protein)
chain: LKCKNKVVPFLKCKNKVVPFLCYKMTLKKVPKIPIKRGCTDACPKSSLLVNVMCCKTDKCN

Legend:
plasma [1] = test: Stypven time; format: biochemical; conditions: human plasma, RVV
Method: (§1) Anticoagulant activity—The anticoagulant activities of H. haemachatus venom and its fractions was determined by four coagulation tests using a BBL fibrometer: • 1. Recalcification time: The recalcification times were determined according to the method of Langdell et al. (25). 50 mM Tris-HCl buffer (pH 7.4) (100 μl), plasma (100 μl) and various concentrations of venom or its fraction (50 μl) were preincubated for 2 min at 37° C. Clotting was initiated by the addition of 50 μl of 50 mM CaCl2. • 2. Prothrombin time: The prothrombin times were measured according to the method of Quick (26). […] Clotting was initiated by the addition of thromboplastin with calcium reagent (150 μl) which can be purchased from Sigma (St. Louis, Mo., USA). • For studying the role of electrostatic interactions, the anticoagulant activity of a specific concentration of hemextin A (4.4 μM), hemextin B (4.4 μM) and hemextin AB complex (0.11 μM) was monitored in 50 mM Tris-HCl (pH 7.4) containing various concentrations of NaCl (35 mM to 150 mM). • For studying the role of hydrophobic interactions, the anticoagulant activity of a specific concentration of hemextin A (4.4 μM), hemextin B (4.4 μM) and hemextin AB complex (0.11 μM) was monitored in 50 mM Tris-HCl (pH 7.4) containing various concentrations of glycerol (125 mM to 250 mM). • 2. […] Thrombin time: Thrombin time was determined according to the method of Jim (28). […]

FVIIa-sTF = target: T1, FVIIa-sTF (Homo sapiens, UniProt P08709); test: FVIIa-sTF amidolytic activity; format: biochemical; conditions: FVIIa-sTF (30 nM)/S-2288
T1 construct: made in house; host or cells: Saccharomyces cerevisiae (sTF); human plasma (FVIIa)
Method: Serine protease specificity—The selectivity profile of anticoagulant proteins and their complex was examined against 12 serine proteases—procoagulant serine proteases (FIXa, FXa, FXIa, FXIIa, plasma kallikrein and thrombin), anticoagulant serine protease (APC), fibrinolytic serine proteases (urokinase, t-PA and plasmin) and classical serine proteases (trypsin and chymotrypsin). Various concentrations of purified hemextin A/hemextin B and reconstituted hemextin AB complex were preincubated with each of the enzymes (Table 1) for a period of five minutes at a temperature of 37° C., followed by the addition of appropriate chromogenic substrate.
For studies with FXIa, kallikrein and urokinase, the appropriate substrates were determined prior to their screening against the inhibitors. For FXIa, the Vmax for the amidolytic activity corresponding to the chromogenic substrates S-2266, S-2302 and S-2366 was determined. S-2302 was the substrate with the highest Vmax and thus was used in the screening studies. Similar studies with kallikrein and urokinase were carried out with substrates S-2266, S-2302 and S-2288 for kallikrein and S-2444 and S-2484 for urokinase. […] The kinetic rate of substrate hydrolysis (mOD/min) was measured over 5 min.

plasma [2] = test: Thrombin time; format: biochemical; conditions: human plasma, thrombin reagent
Method: as §1

[3] = Size exclusion chromatography of hemextin AB complex in different buffers; format: physicochemical
Method: Size exclusion chromatography (SEC) studies—All SEC experiments were carried out at room temperature on a pre-packed Superdex 75 gel filtration column (1.6×60 cm) using a ÄKTA Purifier system (Amersham Biosciences, Uppsala, Sweden). The column was eluted with 50 mM Tris-HCl buffer (pH 7.4) or the specified elution buffer, at a flow rate of 1 ml/min. The sample volume applied to the column was 4 ml. The column was calibrated using ovomucoid (28 kD) ribonuclease (15.6 KD), cytochrome C (12 KD), apoprotinin (7 KD) and pelovaterin (4 KD) (20) as molecular weight markers. The void volume was determined by running Blue Dextran. The column was equilibrated with at least two bed volumes of the elution buffer prior to each run. Electrostatic contributions in the hemextin AB complex formation were studied by monitoring its elution in 50 mM Tris-HCl buffer (pH 7.4) of different concentrations of NaCl (75 mM and 150 mM). Hydrophobic contributions for the complex formation were determined by recording its elution in 50 mM Tris-HCl buffer (pH 7.4). In both studies, the column was first equilibrated with the desired buffer prior to the application of the reconstituted hemextin AB complex in the respective buffer to the column. Elution of protein was monitored by absorbance at 280 nm.

T1 sequence (P08709 61-212 limits assumed): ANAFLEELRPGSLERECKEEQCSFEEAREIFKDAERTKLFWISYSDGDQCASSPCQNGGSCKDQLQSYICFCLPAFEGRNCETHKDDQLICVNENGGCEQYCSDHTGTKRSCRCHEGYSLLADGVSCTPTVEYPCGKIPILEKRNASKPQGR
T1 sequence (P08709 213-466 limits assumed): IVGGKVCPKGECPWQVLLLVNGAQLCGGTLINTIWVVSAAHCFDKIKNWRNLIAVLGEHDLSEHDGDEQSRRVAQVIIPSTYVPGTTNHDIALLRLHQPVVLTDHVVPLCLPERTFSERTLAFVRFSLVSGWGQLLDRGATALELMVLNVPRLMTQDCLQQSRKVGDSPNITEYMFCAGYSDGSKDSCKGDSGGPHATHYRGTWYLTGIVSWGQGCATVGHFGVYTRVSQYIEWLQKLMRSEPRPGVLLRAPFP
T1 sequence (P13726 33-251 partner limits assumed): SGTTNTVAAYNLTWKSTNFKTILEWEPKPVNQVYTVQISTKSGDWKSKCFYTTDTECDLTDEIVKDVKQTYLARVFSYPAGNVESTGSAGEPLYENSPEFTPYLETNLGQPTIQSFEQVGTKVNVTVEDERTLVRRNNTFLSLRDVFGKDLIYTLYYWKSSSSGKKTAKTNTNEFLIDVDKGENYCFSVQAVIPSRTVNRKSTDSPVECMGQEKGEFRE

| Molecule | clotting time, Stypven time (plasma [1]) | inhibition of FVIIa-sTF amidolytic activity (FVIIa-sTF) | clotting time, thrombin time (plasma [2]) | SEC elution of the complex, 75 mM NaCl ([3]; 50 mM Tris-HCl (pH 7.4), 75 mM NaCl) | SEC elution of the complex, 150 mM NaCl ([3]; 50 mM Tris-HCl (pH 7.4), NaCl 150 mM) | SEC elution of the complex, high glycerol concentration ([3]; Superdex 75, buffers containing glycerol) |
| --- | --- | --- | --- | --- | --- | --- |
| B1 | did not prolong | potent inhibitory activity | did not prolong |  |  |  |
| B2 |  | potent inhibitory activity |  | the tetramer starts breaking down to dimer | eluted mostly as a dimer and monomer | the tetramer breaks down to dimer and monomers |
| B3 | did not prolong clotting times |  | did not prolong clotting times |  |  |  |

Source: patent US20090180995A1, “NOVEL ANTICOAGULANT POLYPEPTIDES AND COMPLEX” (National University of Singapore, priority 2005, published 2009)
